# In patent publication US20240166703A1, “ANTI-INFLAMMATORY PEPTIDE AND METHOD OF USE THEREOF” (The Regents of the University of California, priority 2021, published 2024):
# Target: T1, polyubiquitin-dependent second interaction between NEMO and IKK2 (Homo sapiens, UniProt O14920)
# T1 construct: proteins of HEK293T cells expressing full length human IKK2 were extracted; expressed in transfected cells; host or cells: HEK293T whole cell lysate supplied HA-IKK2; GST-NEMO 241-419 was expressed in E. coli Rosetta (DE3)
# T1 sequence (O14920 1-756): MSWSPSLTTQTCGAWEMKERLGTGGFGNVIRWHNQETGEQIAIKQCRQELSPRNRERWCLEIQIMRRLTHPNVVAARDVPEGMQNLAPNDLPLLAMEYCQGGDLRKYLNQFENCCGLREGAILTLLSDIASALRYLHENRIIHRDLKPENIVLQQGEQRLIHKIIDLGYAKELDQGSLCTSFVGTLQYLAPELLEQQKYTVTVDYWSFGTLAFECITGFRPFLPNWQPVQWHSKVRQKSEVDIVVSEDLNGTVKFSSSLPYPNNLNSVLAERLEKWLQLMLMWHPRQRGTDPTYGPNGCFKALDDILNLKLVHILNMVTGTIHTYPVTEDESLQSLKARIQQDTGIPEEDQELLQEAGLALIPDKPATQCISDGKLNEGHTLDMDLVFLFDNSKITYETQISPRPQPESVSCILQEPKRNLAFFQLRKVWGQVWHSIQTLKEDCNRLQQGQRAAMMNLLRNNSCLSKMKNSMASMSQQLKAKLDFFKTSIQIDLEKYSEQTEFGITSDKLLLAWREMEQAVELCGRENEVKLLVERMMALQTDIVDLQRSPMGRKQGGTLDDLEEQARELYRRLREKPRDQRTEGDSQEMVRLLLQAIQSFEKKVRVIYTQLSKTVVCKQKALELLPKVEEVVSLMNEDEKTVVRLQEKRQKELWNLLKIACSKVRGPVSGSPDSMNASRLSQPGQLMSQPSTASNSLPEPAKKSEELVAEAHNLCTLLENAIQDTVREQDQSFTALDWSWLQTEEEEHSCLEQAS
# Assay: Peptide in vitro GST pull-down from HA-IKK2-transfected HEK293T whole cell lysates
# Type: binding
# Conditions: peptide 200-25 μM
# Experimental: Proteins of HEK293T cells transfected with full length human IKK2 or mutants were extracted using RIPA buffer. After centrifugation at 16,000×g for 20 minutes, the supernatants were adjusted to the binding buffer (containing 1.5 mU Hexokinase) and incubated on a rotating platform for 1 hour at 4° C. These whole-cell extracts were then incubated with E. coli-expressed GST-fusion NEMO in the absence or presence of Ub4 on a rotating platform for 2 hours at 4° C. The beads were centrifuged at 1,000×g for 2 minutes and washed four times in binding buffer. Proteins bound to beads were resuspended in SDS loading buffer, resolved by SDS-PAGE, and analyzed by western blot.
# For peptide in vitro pull-down assay, proteins of HEK293T cells expressing full length human IKK2 were extracted using the same lysis buffer described above. Whole cell lysates were mixed with E. coli-expressed GST-NEMO with or without NEMO^ActPep or mNEMO^ActPep at different concentrations in the absence of presence of Ub4 and incubated on a rotating platform for 2 hours at 4° C. The beads were then washed four times in the binding buffer. Proteins bound to beads were resuspended in SDS-PAGE loading buffer, separated by SDS-PAGE, and analyzed by western blot. […]
substance,measurement,value
TAT-NEMO^ActPep: HIV-1 TAT fused flexibly to human NEMO amino acids 375-391; cell permeable version of NEMO activation peptide (SEQ ID NO 2) (YGRKKRRQRRRGGLSSPLALPSQRRSPPEE),"HA-IKK2 pulled down by GST-NEMO^241-419 in the presence of Ub4 (NEMO:IKK2 second interaction, western blot)",loss of this interaction was observed with increasing concentrations
